Experiments:
Settings in all cases: percent of positive control peptide binding; peptide at 1.11×10^−5M
[1] = target: MHC class I allele A*0101 (A1) (Homo sapiens, UniProt P04439, A114D/A174V/A182V/D101N/D185E/E176A/E190D/L180R/Q94H/R68K/S129P/T187R/V100A/V91M/W191G); test: iTopia peptide binding assay, A*0101
Method: (§1) The 9 mers were tested for Peptide Binding, Off Rate and Affinity using iTopia Epitope Discovery System in accordance with the manufacturer's instructions. Briefly, 96 well microtitre plates coated with MHC molecules representing different MHC alleles are used to identify candidate peptides. […] Determinations are performed in duplicate using an ELISA plate reader and included allele specific positive controls.
(§2) i) Peptide Binding—This assay measures the ability of individual peptides to bind to the MHC molecules under standardized optimal binding conditions. The assay is performed for all the test peptides across the selected MHC alleles. The test peptides identified as “binders” are characterized further in terms of affinity and dissociation experiments.
(§3) Following a period of binding under optimal conditions, excess antibody is removed and a measurement of total fluorescence taken (D).
(§4) The binding of the test peptides to the MHC molecules was performed at 1.11×10^−5M of peptide under optimal, standardised test conditions. A control peptide was run in parallel on the same plate and at the same concentration as the test peptides.
(§5) The level of binding is expressed as a percent of positive control peptide binding for each allele.

[2] = target: MHC class I allele A*0201 (A2) (Homo sapiens, UniProt P04439, D140Y/D185E/D98H/E176V/E277Q/G131W/G231S/I119V/I121R/I166T/I218V/L300P/L318F/N151K/N90K/P208A/P217A/Q86G/Q94H/R138H/R169H/T345S); test: iTopia peptide binding assay, A*0201
Method: as §1, §2, §3, §4, §5

[3] = target: MHC class I allele B*0702 (B7) (Homo sapiens, UniProt P01889); test: iTopia peptide binding assay, B*0702
Method: as §1, §2, §3, §4, §5

[4] = target: MHC class I allele A*0301 (A3) (Homo sapiens, UniProt P04439); test: iTopia peptide binding assay, A*0301
Method: as §1, §2, §3, §4, §5

Sequence | Peptide binding, MHC Class I Molecule A*0101 [1] | Peptide binding, MHC Class I Molecule A*0201 [2] | Peptide binding, MHC Class I Molecule B*0702 [3] | Peptide binding, MHC Class I Molecule A*0301 [4]
LHLEDNALK [Peptide 132] | 4 % of control | 4 % of control | 0 % of control | 5 % of control
ETEVVQGKD [Peptide 156] | 0 % of control | 1 % of control | 1 % of control | 3 % of control
IFLLVLYLN [Peptide 185] | 0 % of control | 8 % of control | 2 % of control | 0 % of control
MRNRVLLEL [Peptide 165] | 0 % of control | 6 % of control | 13 % of control | 4 % of control
HNPLADLSP [Peptide 76] | 5 % of control | 7 % of control | 5 % of control | 3 % of control
DRLTCAYPE [Peptide 160] | 0 % of control | 6 % of control | 3 % of control | 5 % of control
AALNLSGSR [Peptide 61] | 3 % of control | 6 % of control | 3 % of control | 13 % of control
INADPRLTN [Peptide 203] | 0 % of control | 3 % of control | 4 % of control | 1 % of control
SAQPPLPDQ [Peptide 27] | 2 % of control | 13 % of control | 3 % of control | 0 % of control
SLRQLDLSH [Peptide 72] | 0 % of control | 6 % of control | 13 % of control | 11 % of control
YHYRYEINA [Peptide 200] | 0 % of control | 7 % of control | 5 % of control | 1 % of control
CSRGPAAGD [Peptide 3] | 0 % of control | 3 % of control | 3 % of control | 5 % of control
DPILPPSLQ [Peptide 173] | 0 % of control | 7 % of control | 0 % of control | 4 % of control
VVAALLAGR [Peptide 100] | 9 % of control | 11 % of control | 7 % of control | 49 % of control
RDVLAQLPS [Peptide 114] | 1 % of control | 15 % of control | 4 % of control | 3 % of control
SGSNASVSA [Peptide 82] | 5 % of control | 15 % of control | 11 % of control | 3 % of control
QPPLPDQCP [Peptide 28] | 6 % of control | 5 % of control | 3 % of control | 1 % of control
ADMVTWLKE [Peptide 152] | 0 % of control | 6 % of control | 8 % of control | 4 % of control
PHIRVFLDN [Peptide 143] | 0 % of control | 2 % of control | 10 % of control | 3 % of control
LPSLRHLDL [Peptide 117] | 0 % of control | 16 % of control | 96 % of control | 1 % of control
LCECSEAAR [Peptide 33] | 3 % of control | 8 % of control | 0 % of control | 0 % of control
QCPALCECS [Peptide 31] | 3 % of control | 2 % of control | 0 % of control | 0 % of control
NNSLVSLTY [Peptide 122] | 8 % of control | 12 % of control | 0 % of control | 4 % of control
PWVCDCHMA [Peptide 148] | 0 % of control | 0 % of control | 0 % of control | 0 % of control
CAYPEKMRN [Peptide 162] | 0 % of control | 11 % of control | 3 % of control | 4 % of control
SFRNLTHLE [Peptide 127] | 1 % of control | 1 % of control | 0 % of control | 1 % of control
DCDPILPPS [Peptide 172] | 0 % of control | 0 % of control | 0 % of control | 3 % of control
PAGAFARRP [Peptide 54] | 2 % of control | 4 % of control | 7 % of control | 3 % of control
NHIVPPEDE [Peptide 91] | 6 % of control | 11 % of control | 5 % of control | 3 % of control
